Laboratory results from paper PMC11861356.

Molecular target: IRF3 (UniProt Q14653)
Experiment: co-immunoprecipitation of tagged proteins, immunoblot
Details: reference: wild-type TBK1; sites Y174

TBK1 (from UniProt Q9UHD2) TBK1 Y174F
binding against the reference: weaker
